# Test results published in publication PMC5701006.
# Legend:
# [1] = molecular target: H. polygyrus TGF-β mimic (Hp-TGM), recombinant, amine-coupled to the chip (Heligmosomoides polygyrus); assay: SPR; BIAcore X100; hTGF-β3 or Hp-TGM amine-coupled to a CM5 chip; two-fold dilutions of hTβRI (from 4 µM downwards) injected in HBS-EP at 30 µL/min, room temperature; global fit, simple 1:1 model
# [2] = molecular target: H. polygyrus TGF-β mimic (Hp-TGM), recombinant, amine-coupled to the chip (Heligmosomoides polygyrus); assay: SPR; as a1 but with 2 μM hTβRII in the HBS-EP running buffer and in the injected hTβRI samples
# [3] = molecular target: human TGF-β3 on the chip with hTβRII extracellular domain bound (2 μM hTβRII in running buffer and samples) (human) (UniProt P37173); assay: as above
binder,measurement,setting,value
human TGF-β type I receptor extracellular domain (receptor) LQCFCHLCTKDNFTCVTDGLCFVSVTETTDKVIHNSMCIAEIDLIPRDRPFVCAPSSKTGSVTTTYCCNQDHCNKIELPTTVKSSPGLGPVEL,Kd,[1],0.351 µM
same,koff,[1],0.00386 s⁻¹
same,kon,[1],11000 M⁻¹ s⁻¹
same,Kd,[2],0.348 µM
same,koff,[2],0.00315 s⁻¹
same,kon,[2],9070 M⁻¹ s⁻¹
same,Kd,[3],0.367 µM
same,koff,[3],0.00179 s⁻¹
same,kon,[3],4890 M⁻¹ s⁻¹
